How the values were obtained:
AtWRI1 1-302 [1] = biological target: T1, AtWRI1 1-302 (UniProt Q6X5Y6 1-302); assay: EMSA; 15 mM HEPES-KOH pH 7.5, 7.5 mM KCl, 0.5 mM EDTA, 5% glycerol, 2 mM DTT, 1 ug/uL BSA, 0.05 ug/uL poly(dI-dC), 2 fmol/uL probe, ~1 pmol His-TCP20 in 20 uL, room temperature 30 min; conditions: protein: recombinant; tags: N-terminal 6xHis (pNIC28-Bsa4); label: 5' biotin
TCP20 [2] = biological target: T2, TCP20 (UniProt Q9LSD5 1-314); assay: as above; conditions: protein: recombinant; tags: 6xHis (pET41a-6xHis); chain copies: 2; label: 5' biotin
T2 sequence (Q9LSD5 whole entry): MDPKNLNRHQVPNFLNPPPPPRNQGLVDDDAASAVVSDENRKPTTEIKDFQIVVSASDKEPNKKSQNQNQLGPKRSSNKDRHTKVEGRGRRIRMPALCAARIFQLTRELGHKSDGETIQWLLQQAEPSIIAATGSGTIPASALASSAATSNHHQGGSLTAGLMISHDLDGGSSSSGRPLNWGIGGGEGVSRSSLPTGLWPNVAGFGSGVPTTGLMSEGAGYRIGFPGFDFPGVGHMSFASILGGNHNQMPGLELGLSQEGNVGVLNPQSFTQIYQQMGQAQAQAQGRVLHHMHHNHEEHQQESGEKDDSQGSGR

AtWRI1 1-302 [3] = biological target: T1, AtWRI1 1-302; assay: EMSA; equal affinity to probe 1; 15 mM HEPES-KOH pH 7.5, 7.5 mM KCl, 0.5 mM EDTA, 5% glycerol, 2 mM DTT, 1 ug/uL BSA, 0.05 ug/uL poly(dI-dC), 2 fmol/uL probe, ~1 pmol His-TCP20 in 20 uL, room temperature 30 min; conditions: protein: recombinant; tags: N-terminal 6xHis (pNIC28-Bsa4); label: 5' biotin
TCP20 [4] = biological target: T2, TCP20; assay: EMSA; plus AtWRI1 1-302, 0.53-2.12 pmol (no reduction); 15 mM HEPES-KOH pH 7.5, 7.5 mM KCl, 0.5 mM EDTA, 5% glycerol, 2 mM DTT, 1 ug/uL BSA, 0.05 ug/uL poly(dI-dC), 2 fmol/uL probe, ~1 pmol His-TCP20 in 20 uL, room temperature 30 min; conditions: protein: recombinant; tags: 6xHis (pET41a-6xHis); chain copies: 2; label: 5' biotin
AtWRI1 1-302 [5] = biological target: T1, AtWRI1 1-302; assay: EMSA; equal affinity to probe 3; 15 mM HEPES-KOH pH 7.5, 7.5 mM KCl, 0.5 mM EDTA, 5% glycerol, 2 mM DTT, 1 ug/uL BSA, 0.05 ug/uL poly(dI-dC), 2 fmol/uL probe, ~1 pmol His-TCP20 in 20 uL, room temperature 30 min; conditions: protein: recombinant; tags: N-terminal 6xHis (pNIC28-Bsa4); label: 5' biotin
AtWRI1 1-302 [6] = biological target: T1, AtWRI1 1-302; assay: EMSA; equal affinity to probe 2; 15 mM HEPES-KOH pH 7.5, 7.5 mM KCl, 0.5 mM EDTA, 5% glycerol, 2 mM DTT, 1 ug/uL BSA, 0.05 ug/uL poly(dI-dC), 2 fmol/uL probe, ~1 pmol His-TCP20 in 20 uL, room temperature 30 min; conditions: protein: recombinant; tags: N-terminal 6xHis (pNIC28-Bsa4); label: 5' biotin

T1 sequence (Q6X5Y6 1-302): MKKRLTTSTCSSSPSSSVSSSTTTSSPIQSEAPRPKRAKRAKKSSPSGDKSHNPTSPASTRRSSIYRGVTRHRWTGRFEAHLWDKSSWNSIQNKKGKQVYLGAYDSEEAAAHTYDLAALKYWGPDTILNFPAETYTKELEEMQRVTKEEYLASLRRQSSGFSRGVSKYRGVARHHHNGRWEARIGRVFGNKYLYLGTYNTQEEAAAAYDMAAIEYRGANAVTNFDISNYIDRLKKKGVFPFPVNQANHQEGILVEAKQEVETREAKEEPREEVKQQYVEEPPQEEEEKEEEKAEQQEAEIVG

Binder | binding result (AtWRI1 1-302 [1]) | binding result (TCP20 [2]) | also measured
proGH3.3 probe 1 (dsDNA) DNA 1: TCTAACGATAACAAACCGAGCCCACTTTTATGTCGACGTGGAATTTGGCT DNA 2: AGCCAAATTCCACGTCGACATAAAAGTGGGCTCGGTTTGTTATCGTTAGA | binds | binds | –
proGH3.3 probe 1M (dsDNA) DNA 1: TCTAACGATAACAAACCAAGAAAAATTTTATGTCGACGTGGAATTTGGCT DNA 2: AGCCAAATTCCACGTCGACATAAAATTTTTCTTGGTTTGTTATCGTTAGA | – | no binding | binding result (AtWRI1 1-302 [3]): binds
proGH3.3 probe 3 (dsDNA) DNA 1: GACATATCAGTCCCACATGTCTGCCCAAAACTAGCCAAAGATTACGTGACC DNA 2: GGTCACGTAATCTTTGGCTAGTTTTGGGCAGACATGTGGGACTGATATGTC | binds | – | binding result (TCP20 [4]): binds
proGH3.3 probe 3M (dsDNA) DNA 1: GACATATCAATAAAAAATGTCTGCCCAAAACTAGCCAAAGATTACGTGACC DNA 2: GGTCACGTAATCTTTGGCTAGTTTTGGGCAGACATTTTTTATTGATATGTC | – | no binding | binding result (AtWRI1 1-302 [5]): binds
proGH3.3 probe 2 (dsDNA) DNA 1: ATGTCTGCCCAAAACTAGCCAAAGATTACGTGACCGCGGTCCCTCTTGTCC DNA 2: GGACAAGAGGGACCGCGGTCACGTAATCTTTGGCTAGTTTTGGGCAGACAT | binds | binds | –
proGH3.3 probe 2M (dsDNA) DNA 1: ATGTCTGCCCAAAACTAGCCAAAGATTACGTGACCGCAATAAATATTGTCC DNA 2: GGACAATATTTATTGCGGTCACGTAATCTTTGGCTAGTTTTGGGCAGACAT | – | no binding | binding result (AtWRI1 1-302 [6]): binds
proGH3.3 probe 4 (dsDNA) DNA 1: CTATATATTTTTAATATTTAGGTCCCATTAAATCAGTTTGTGATTTCAGA DNA 2: TCTGAAATCACAAACTGATTTAATGGGACCTAAATATTAAAAATATATAG | – | – | binding result (TCP20 [4]): binds
proGH3.3 probe 4M (dsDNA) DNA 1: CTATATATTTTTAATATTTAAATAAAATTAAATCAGTTTGTGATTTCAGA DNA 2: TCTGAAATCACAAACTGATTTAATTTTATTTAAATATTAAAAATATATAG | – | no binding | –
